# Assay results taken from patent US20140123330.
# Test system: btGDF83.1 TALEN pair (synthetic (TALE-FokI))
# Test: cell_activity
# Details: SURVEYOR; bovine fibroblasts; active at 30 and 37 C; pair called btGDF8.1 and btGDF83.1
substance,measurement,value
bovine GDF8 exon 3 target,activity (% chromosomes cleaved),< 16
